We go through two molecules from patent US20250042992A1 (University of California, published 2025).

Assay [1] addresses T1, human DLK1 long form (isoform 1, DLK1-FL) fused to mGFP, overexpressed on HEK293T cells (human, UniProt P80370 24-383).
T1 construct: also called HEK293T DLK1 mGFP G06 (long form); DLK-FL; not shown: mGFP fluorescent protein fused to DLK1
T1 sequence: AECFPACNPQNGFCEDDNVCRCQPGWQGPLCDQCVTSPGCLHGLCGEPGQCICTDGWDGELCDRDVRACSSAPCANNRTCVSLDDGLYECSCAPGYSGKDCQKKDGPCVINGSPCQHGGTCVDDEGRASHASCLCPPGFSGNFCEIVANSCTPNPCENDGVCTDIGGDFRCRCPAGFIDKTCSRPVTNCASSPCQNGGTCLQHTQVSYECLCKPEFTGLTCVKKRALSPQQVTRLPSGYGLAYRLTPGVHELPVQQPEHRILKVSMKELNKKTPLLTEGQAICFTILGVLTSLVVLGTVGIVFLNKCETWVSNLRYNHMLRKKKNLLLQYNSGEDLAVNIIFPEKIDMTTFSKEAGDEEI
As to the kind of experiment: KinExA on HEK293T DLK1mGFP Human Clone G06 cells detached by Versene; Error% 5.90; 95% CI not defined; equilibrium curves 400pM, 50nM. (A kinetic exclusion assay measures how much of one partner remains free in solution.)

Assay [2] has as its target T2, mouse DLK1 fused to mGFP, overexpressed on HEK293T cells (mouse, UniProt Q09163 24-385).
T2 construct: not shown: mGFP fluorescent protein fused to DLK1
T2 sequence: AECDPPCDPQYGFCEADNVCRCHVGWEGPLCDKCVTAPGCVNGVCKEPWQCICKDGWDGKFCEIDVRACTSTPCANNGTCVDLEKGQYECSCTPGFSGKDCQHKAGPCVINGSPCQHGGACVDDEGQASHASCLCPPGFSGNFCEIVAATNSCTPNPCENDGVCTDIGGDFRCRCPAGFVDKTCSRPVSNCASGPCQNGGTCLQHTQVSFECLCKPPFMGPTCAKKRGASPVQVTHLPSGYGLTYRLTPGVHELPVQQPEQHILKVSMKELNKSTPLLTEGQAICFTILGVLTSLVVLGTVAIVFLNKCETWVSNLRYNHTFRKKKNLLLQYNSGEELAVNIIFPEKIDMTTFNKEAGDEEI
Kind of assay: KinExA on HEK293T DLK1mGFP Mouse mass pop cells detached by Versene; Error% 3.08; 95% CI 4.21nM - 26.32nM; equilibrium curves 400pM, 50nM.

In assay [3] the target is human DLK1-overexpressed on surface of HEK293T cells or DLK1-positive COR-L279 cells. As to the kind of experiment: affinity on cells (HEK293T overexpressing human DLK1 or COR-L279); method not stated in the sentence (KinExA is named for FIG. 11).
Assay [4] addresses T3, rat DLK1 fused to mGFP, overexpressed on HEK293T cells (rat, UniProt O70534 24-383).
T3 construct: whole, on cells; not shown: mGFP fluorescent protein fused to DLK1
T3 sequence (looked up): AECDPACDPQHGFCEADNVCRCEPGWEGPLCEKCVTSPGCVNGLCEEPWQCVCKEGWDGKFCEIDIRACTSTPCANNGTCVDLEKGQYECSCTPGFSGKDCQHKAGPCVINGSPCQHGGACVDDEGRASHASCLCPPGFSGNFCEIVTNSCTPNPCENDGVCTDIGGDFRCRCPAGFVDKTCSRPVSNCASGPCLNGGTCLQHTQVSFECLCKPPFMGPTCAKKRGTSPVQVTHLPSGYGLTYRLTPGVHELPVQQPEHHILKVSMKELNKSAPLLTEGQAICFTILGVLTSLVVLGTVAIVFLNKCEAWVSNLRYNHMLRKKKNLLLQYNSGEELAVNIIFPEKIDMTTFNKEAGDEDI
As to the kind of experiment: KinExA on cells, row HEK293T Rat DLK1mGFP mass pop.

Assay [5] deals with human DLK1 endogenously expressed on COR-L279 small cell lung carcinoma cells (human) (UniProt P80370). As to the kind of experiment: flow cytometry, antibody at 20µg/ml, row CORL-279 (SCLC, DLK+); row M202 of the same block: 5,208.0. On the technique in general: Flow cytometry measures light scatter and fluorescence of single cells or particles in a stream.
The target in assay [6] is T3, rat DLK1 fused to mGFP, overexpressed …. Kind of assay: KinExA on HEK293T DLK1mGFP Rat mass pop cells detached by Versene; Error% 3.17; 95% CI 1.82nM - 13.53nM; equilibrium curves 400pM, 50nM.
Assay [7] has as its target T4, DLK1 ECD-mFc short form (human DLK1-MB, isoform 2) (human, UniProt P80370 24-228).
T4 construct: also called short form of the human DLK1 protein (ELISA coat); not shown: mFc (monomeric immunoglobulin Fc domain)
T4 sequence: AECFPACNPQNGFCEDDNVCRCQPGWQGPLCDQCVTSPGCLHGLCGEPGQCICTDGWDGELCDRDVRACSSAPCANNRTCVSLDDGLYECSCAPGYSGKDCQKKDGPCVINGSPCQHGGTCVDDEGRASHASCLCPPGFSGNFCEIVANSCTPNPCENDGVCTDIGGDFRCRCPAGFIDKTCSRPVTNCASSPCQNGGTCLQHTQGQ
Kind of assay: ELISA, plate coated with short form of DLK1 ECD-mFc (isoform 2), anti-human IgG Fc-HRP, OD450nm. On the procedure: Plates were incubated with DLK1 Abs serially diluted 2-fold starting from 400 ng/ml in 5% BSA/PBS at RT for 1.5 hrs. Mouse anti-human IgG Fc secondary antibody conjugated to HRP (Novus catalog number: NBP1-78623H) at 1:3000 dilution was applied to each well at 50 μl/well and further incubated at RT for 1 hr. The ELISA was developed first with Thermo Scientific Pierce 1-Step™ Ultra TMB-ELISA substrate solution and then with addition of sulfuric acid stop solution. The ELISA plate was read on a plate reader at 450 nm.
On the technique in general: ELISA stands for enzyme-linked immunosorbent assay.

Assay [8] concerns the target either the long or short form of the human DLK1 protein (DLK1 ECD-mFc long form or short form, ELISA coat). As to the kind of experiment: ELISA, plates coated with DLK1 ECD-mFc long form or short form, anti-human IgG Fc-HRP detection.

B1: humanized anti-DLK1 antibody 04-0547-h2 (IgG1) (antibody, V domains shown)
VH: EVQLVESGGGLVQPGGSLRLSCAASGFSISDYYMAWVRQAPGKGLEWVANINYDGTNTYYADSVKGRFTISRDNSKNTLYLQMNSLRAEDTAVYYCVRSYYYYGMEYWGQGTTVTVSS
VL: DIQMTQSPSSLSASVGDRVTITCRASHDVSTAVAWYQQKPGKAPKLLIYSASYRYTGVPSRFSGSGSGTDFTLTISSLQPEDFATYYCQQHYRIPLTFGQGTKLEIK
notes: human kappa (P01834) and human IgG1 (P01857) constant regions
B1: the Kd in assay [1] was 5.34 nM; in assay [2] it was 13 nM; in assay [3] it was 5 to 9 nM; in assay [4], 5.96 nM; in assay [6] it was 5.96 nM. The Antibody Binding Activity by Flow Cytometry (20µg/ml) in assay [5] came to 186000.

B2: humanized anti-DLK1 antibody 04-0561-F1 (IgG1) (antibody, V domains shown)
VH: QVQLQESGPGLVKPSETLSLTCTVSGFSLSIYSVHWVRQPPGKGLEWIGLIWGGGSTDYNPSLKSRVTISKDTSKNQVSLKLSSVTAADTAVYYCARKEGNYLWFAYWGQGTLVTVSS
VL: DIVMTQSPDSLAVSLGERVTMNCKSSQSLLQSSNQKNYLAWYQQKPGQPPKLLVYFASTRESGVPDRFSGSGSGTDFTLTISSVQAEDVAVYYCQQHYSIPLTFGQGTKLEIKR
With B2, the concentration for a half-maximal effect (EC50) in assay [7] was 0.81 nM; in assay [8] it was 0.81 to 0.87 nM.

Broadly, the Kd is a measure of binding affinity in units of concentration. Low readings indicate a tighter complex, high ones a looser complex. For orientation: EC50 means the concentration that produces a half-maximal response. Low readings indicate higher potency in that assay, high ones lower potency in that assay.
